These are literature values, as cited in publication PMC2846219.

What is called Kd is the equilibrium constant for the complex coming apart.

Read-outs that look alike come from different tables or passages of the source.

For series [1], the target named is PCNA (Homo sapiens) (UniProt P12004).
Series [2] has the same target. The source holds these as a separate data set.

UniProt P12004, sequence (P12004 whole entry): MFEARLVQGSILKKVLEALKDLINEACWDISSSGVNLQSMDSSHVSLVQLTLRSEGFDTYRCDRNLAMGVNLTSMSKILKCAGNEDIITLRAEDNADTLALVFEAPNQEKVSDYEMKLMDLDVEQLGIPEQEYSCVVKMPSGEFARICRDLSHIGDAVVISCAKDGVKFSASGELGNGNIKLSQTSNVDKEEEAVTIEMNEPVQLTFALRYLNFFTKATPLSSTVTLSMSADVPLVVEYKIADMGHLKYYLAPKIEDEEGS

With “DNA polymerase eta PIP peptide PIP peptide (from UniProt Q9Y253)”, in the series with PCNA (Homo sapiens) [1], the dissociation constant (Kd) is 400 nM.
Consider “DNA polymerase iota PIP peptide PIP peptide (from UniProt Q9UNA4)”, for which the Kd in the series with PCNA (Homo sapiens) [2] was 390 nM.
